Laboratory results reported in the domain aggregation screens of Martell et al. (2025).

test: soluble fraction after stress (log2 fold change); higher = more stays soluble; pooled small domains, quantitative proteomics; details: stress: 75 degC
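Further: 20 min heating vs room temperature control held 20 min.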

In order of rising “soluble fraction (log2)” value:
1. HMNNQIFGLKFRQLRKQQHITLAKAAAGITSRQSLGNWETGKGELAFEKVLLLLKKINVQPIDFLESSIS  -3.9
2. HMNPYLWQRVRLLFSNVGVINNSATVDLVFSAPKGVLTEDLANNFSAALVKKGKEELGLDDIKITISVIPN  -3.67
3. HMNMPDVTVEWVKEQQAKFGLTDSDLAKSVNIDNANLARIFNQRGLTKIHKALFYYFFRAYGLQ  -3.33
4. HMNMDLGHSISKLRTDANLTQEKFAQILNVSRQTVQKWEYGEALPDIHNIIKIAKFFNISLDALVLRS  -3.02
5. HMNPLPALLRYFRQKAGLTQQDVAAALSISRSGYANYEEGRNIPNIEQAIKLSELLNHDFLYAYTLSS  -2.53
6. HMNPETIHNDYKAFIKFAFSGLSYYSKVWNQNREMITPGLLETLWQKYRHLSIGEIETILEKIIKEG  -2.38
7. HMNPASVLDGLKITSFSPTRAIVAGPGGSRIVFDNEAVVLGGIEWDVHIQRNGIEFTSQGQTVLLLFDRS  -2.35
8. HMNNLSEELNVTFPRTRDQLLNILHYVQHKYGYISKVSMQEIGNHIKMPVSEIYGTVTSYSEFKI  -2.25
9. HMNNLTEEAINHLVLEVKNVLLTDALFLGKATDSQLMLRIKETIDQRNGQYNIGMNDRERIARRVFARLR  -2.19
10. HMNQADNFNSLTKREKDVLLLVTQGESNKSIADKLVLSEVTVKSHLNSIFKKLNVTNRTQAVLVAMQMNLV  -1.6
11. HMNMNDIKFGKYLKRVRKKYNFSKEYVANILKVKESLVSDWESGRLTLNDEYMEKLSLFYGVNLYKK  -1.57
12. HMNQASLTYSEFIANVESKAITRVTISGDTISGILADGKPFQTIYPMADLELLPILRRSGVDINVKEVQ  -1.51
13. HMNNLKTKELSKIGYTNDKARSLVISIIPKHFKYHSKSEIIELLTNIKNKPEDYVSDEILGKIAETFMEKI  -1.23
14. HMNMIGDVIRNLRTVSSMTQTELGQRMGVIKQTISNWEKNISTPSIDAIVKLSSIFNVPTDYLL  -1.22
15. HMNPKTELMVYLKKRDEWVASQILSDVLQVSTRTIRKFVKEINMDYQTENVILSSSKGYKLNQNLLSSL  -1.19
16. HMNPSIALHDWLQSSEFKGSINLFAAALGMNPRTVEAWVYGRSTPSRRFWAKLYQITNLSRFRL  -1.08
17. HMNNISKKIKELREQNNITQNKLANDLFIKQQTVAQWENGSRALKADSIISLAKYFNVSTDYLLGLTEN  -0.898
18. HMNMVSGHLQVKKGYYYAVLSFYDSKNKRHVKYISTGLPEKGNKRKAEAELVKIRNAFEPPAE  -0.516
19. HMNMMESNLFAVYDNDDIVKTLRQGAMEIDSLIRLMGKSSAEVLEKLTTMELQGIITRSGNIIALNN  -0.427
20. HMNNLVGKTKVLKSNTNIYAYKTMSGKFYSYLPNTRVRVLQDLGYINYIEVIATKRRGYVYENVY  -0.234
21. HMNNESEGAIMLRQYSSLSAYLTKYNIDVNSKKAQQYASSLKLAQEKGSAEGQKYLSSISSELDD  -0.205
22. HMNQAIIVPDVKGLPLEEATTFFENNDLRYTVIDSVYTKDVPPGAIYEMVPGAGSKVKEGRIIFVTLNAR  -0.183
23. HMNNNIFVYPNPSINYINIDSDEEIWKLEIIQMSGEKINILPFSKRIDISFLSKGLYILNFNNYYIKFIK  -0.136
24. HMNPNYIKKLREKNQLTQEYLAAQIGVSRPTYAQIEQGQRGLTVTEAKKMADIFSLALDDFLAEKN  -0.135
25. HMNMRVLSEQPNKKSYQDGNLRLKVFGASFKKSDILNEALNQARVEETGLQIPKLLEVKQIDGQWTIVTE  -0.0583
26. HMNNIIEQIKADIKKLEEKLDKSSENALNKLEKDYSSLSTESKKKLDDAGYGARIKALRVKFAALSTQ  -0.0452
27. HMNPGNTESFPVYQKRLGEIIQTLAGKKGQDINSPEVKELVGEYDFLTKQMFQLPDATSMVMEIATAYRN  0.0725
28. HMNNQILYERLRDLRERNHFTQAFVSSKLNIGRATYSNYERGKRTPSLDVIMDLASFYKVPFTYF  0.0974
29. HMNNQMTFSKFLNEVDAGRVVEVEIQGNNIKGVLADGNRFNTFSPNYPNLVEKLSDKGVSITAAPK  0.174
30. HMNPDDEMLLTYLTKLLVDKQFIVNSNDIFEYILRRVDRTYDGIYDIVSKLDVLSLEKKRQLTIPLIKEI  0.288
